In paper PMC4325844 (Molecular Biology of the Cell, 2015) one finds Kd data, which are given here for one molecule.

The assay deals with GST–PAR3-2N (UniProt Q9Z340 252-697). Briefly: pull-down.
GST–PAR3-2N, sequence (Q9Z340 252-697): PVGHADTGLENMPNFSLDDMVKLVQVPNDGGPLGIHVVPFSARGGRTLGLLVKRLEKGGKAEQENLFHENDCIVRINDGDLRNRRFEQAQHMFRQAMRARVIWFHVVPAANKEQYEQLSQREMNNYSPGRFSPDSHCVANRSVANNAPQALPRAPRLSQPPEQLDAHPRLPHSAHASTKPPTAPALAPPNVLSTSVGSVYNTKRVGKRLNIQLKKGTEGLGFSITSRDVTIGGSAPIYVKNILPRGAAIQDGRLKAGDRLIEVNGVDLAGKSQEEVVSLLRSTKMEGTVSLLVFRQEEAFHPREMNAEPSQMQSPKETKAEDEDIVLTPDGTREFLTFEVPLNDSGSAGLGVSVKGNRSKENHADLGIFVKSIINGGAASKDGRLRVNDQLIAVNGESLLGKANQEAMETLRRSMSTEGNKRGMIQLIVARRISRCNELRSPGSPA

B1: MBP–CLASP2-N2 (domain or fragment, UniProt O75122 310-670, looked up)
chain: SSGSVASLPQSDRSSSSSQESLNRPFSSKWSTANPSTVAGRVSAGSSKASSLPGSLQRSRSDIDVNAAAGAKAHHAAGQSVRSGRLGAGALNAGSYASLEDTSDKLDGTASEDGRVRAKLSAPLAGMGNAKADSRGRSRTKMVSQSQPGSRSGSPGRVLTTTALSTVSSGVQRVLVNSASAQKRSKIPRSQGCSREASPSRLSVARSSRIPRPSVSQGCSREASRESSRDTSPVRSFQPLASRHHSRSTGALYAPEVYGASGPGYGISQSSRLSSSVSAMRVLNTGSDVEEAVADALKKPARRRYESYGMHSDDDANSDASSACSERSYSSRNGSIPTYMRQTEDVAEVLNRCASSNWSER
By Kd is commonly meant a measure of binding affinity in units of concentration. On to B1, for which the Kd was around 6 nM.
